The results in this text go back to PMC6239281, “Same but different: Comparison of two system-specific molecular chaperones for the maturation of formate dehydrogenases” (PLoS ONE, 2018).

Data set [1] addresses Rhodobacter capsulatus FdsC-C104A (R. capsulatus). The data set can be described thus: SEC; size exclusion chromatography of the Ni-NTA purified chaperones alone; data not shown. In general terms: SEC sorts molecules by how far they enter the pores of the column.
The target in data set [2] is Rhodobacter capsulatus FdsC-C107A (R. capsulatus). The data set is described as above.
The target in data set [3] is Rhodobacter capsulatus FdsC (R. capsulatus). The data set is described as above.
For data set [4], the target named is Rhodobacter capsulatus FdsC-C104A/C107A (R. capsulatus). The description is as above.
Data set [5] concerns the molecule itself. The data set is described as above.
The target of data set [6] is T1, Escherichia coli L-cysteine desulfurase IscS (E. coli, UniProt P0A6B7 1-404).
T1 construct: IscS, L-cysteine desulfurase of Escherichia coli; iscS gene cloned into NcoI/BamHI sites of pET15b (pSL209); also called E. coli IscS; source: recombinant (plasmid pSL209), expressed and purified as described previously [33, 46]
The data set can be described thus: SEC; 20 μM IscS mixed with 40 μM FdhD or FdsC (or double cysteine variant), 30 min at room temperature, Superdex 200 (Increase), 100 mM potassium phosphate pH 8.0 (legend: with 100 mM NaCl, 10 mM β-mercaptoethanol), 280 nm; fractions on 15% SDS-PAGE. To be noted: both partners purified.

T1 sequence (P0A6B7 whole entry): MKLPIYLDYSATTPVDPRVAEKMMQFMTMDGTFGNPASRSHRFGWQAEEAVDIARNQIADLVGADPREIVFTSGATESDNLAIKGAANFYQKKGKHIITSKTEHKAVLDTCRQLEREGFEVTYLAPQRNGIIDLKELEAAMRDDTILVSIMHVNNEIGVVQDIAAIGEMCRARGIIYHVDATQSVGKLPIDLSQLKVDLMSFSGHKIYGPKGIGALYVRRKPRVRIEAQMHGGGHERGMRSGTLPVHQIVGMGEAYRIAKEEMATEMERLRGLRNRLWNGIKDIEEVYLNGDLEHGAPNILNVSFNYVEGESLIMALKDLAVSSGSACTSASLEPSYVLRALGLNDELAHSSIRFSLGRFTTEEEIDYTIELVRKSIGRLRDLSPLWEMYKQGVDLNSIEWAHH

What is called stoichiometry N is the number of molecules, sites or subunits per partner or assembly. In data set [1], “Rhodobacter capsulatus FdsC-C104A (natural protein)” returned a stoichiometry N of 2.

The molecule “Rhodobacter capsulatus FdsC-C107A (natural protein)” yielded a stoichiometry N in data set [2] of 2.

For “Rhodobacter capsulatus FdsC (natural protein)”, the stoichiometry N in data set [3] is 2.

As to “Rhodobacter capsulatus FdsC-C104A/C107A (natural protein)”, in data set [4], the stoichiometry N turned out to be 2.

B1: Escherichia coli FdhD (natural protein, E. coli)
chain: MKKTQRKEIENVTNITGVRQIELWRRDDLQHPRLDEVAEEVPVALVYNGISHVVMMASPKDLEYFALGFSLSEGIIESPRDIFGMDVVPSCNGLEVQIELSSRRFMGLKERRRALAGRTGCGVCGVEQLNDIGKPVQPLPFTQTFDLNKLDDALRHLNDFQPVGQLTGCTHAAAWMLPSGELVGGHEDVGRHVALDKLLGRRSQEGESWQQGAVLVSSRASYEMVQKSAMCGVEILFAVSAATTLAVEVAERCNLTLVGFCKPGRATVYTHPQRLSN
notes: FdhD, FDH-specific chaperone of Escherichia coli; fdhD gene in pTrcHis (pNB10); His6-tagged FdhD has a molecular mass of 32.7 kDa; also called FdhD wild-type; FdhD WT; source: E. coli ΔfdhD strain (plasmid pNB10), purified (Ni-NTA)
For B1, in data set [5], the “stoichiometry N” value was determined as 2. Further, in data set [6], the binding result was “binds”.

B2: Escherichia coli FdhD-C124A (natural protein, E. coli)
chain: MKKTQRKEIENVTNITGVRQIELWRRDDLQHPRLDEVAEEVPVALVYNGISHVVMMASPKDLEYFALGFSLSEGIIESPRDIFGMDVVPSCNGLEVQIELSSRRFMGLKERRRALAGRTGCGVAGVEQLNDIGKPVQPLPFTQTFDLNKLDDALRHLNDFQPVGQLTGCTHAAAWMLPSGELVGGHEDVGRHVALDKLLGRRSQEGESWQQGAVLVSSRASYEMVQKSAMCGVEILFAVSAATTLAVEVAERCNLTLVGFCKPGRATVYTHPQRLSN
notes: FdhD of Escherichia coli with C124A; fdhD^C124A gene in pTrcHis (pNB12); Made from pNB10 by site-directed mutagenesis; also called His6-FdhD^C124A; source: E. coli ΔfdhD strain (plasmid pNB12), purified (Ni-NTA)
Regarding B2, the “stoichiometry N” value in data set [5] amounted to 2.

B3: Escherichia coli FdhD-C121A (natural protein, E. coli)
chain: MKKTQRKEIENVTNITGVRQIELWRRDDLQHPRLDEVAEEVPVALVYNGISHVVMMASPKDLEYFALGFSLSEGIIESPRDIFGMDVVPSCNGLEVQIELSSRRFMGLKERRRALAGRTGAGVCGVEQLNDIGKPVQPLPFTQTFDLNKLDDALRHLNDFQPVGQLTGCTHAAAWMLPSGELVGGHEDVGRHVALDKLLGRRSQEGESWQQGAVLVSSRASYEMVQKSAMCGVEILFAVSAATTLAVEVAERCNLTLVGFCKPGRATVYTHPQRLSN
notes: FdhD of Escherichia coli with C121A; fdhD^C121A gene in pTrcHis (pNB11); Made from pNB10 by site-directed mutagenesis; also called His6-FdhD^C121A; source: E. coli ΔfdhD strain (plasmid pNB11), purified (Ni-NTA)
Consider B3, for which the “stoichiometry N” value in data set [5] is 2.

B4: Escherichia coli FdhD-C121A/C124A (natural protein, E. coli)
chain: MKKTQRKEIENVTNITGVRQIELWRRDDLQHPRLDEVAEEVPVALVYNGISHVVMMASPKDLEYFALGFSLSEGIIESPRDIFGMDVVPSCNGLEVQIELSSRRFMGLKERRRALAGRTGAGVAGVEQLNDIGKPVQPLPFTQTFDLNKLDDALRHLNDFQPVGQLTGCTHAAAWMLPSGELVGGHEDVGRHVALDKLLGRRSQEGESWQQGAVLVSSRASYEMVQKSAMCGVEILFAVSAATTLAVEVAERCNLTLVGFCKPGRATVYTHPQRLSN
notes: FdhD of Escherichia coli with C121A and C124A; fdhD^C121A/C124A gene in pTrcHis (pNB13); Made from pNB10 by site-directed mutagenesis; also called FdhD-C121/C124A; double variant; source: E. coli ΔfdhD strain (plasmid pNB13), purified (Ni-NTA)
Consider B4, for which the “stoichiometry N” value in data set [5] came out at 2. Also, in data set [6], the binding result was “binds”.
